Measurements as given in patent publication US20210032331A1 (PHANES THERAPEUTICS, published 2021).
Residue numbers refer to the chain shown, from its start.

What was measured:
[1] = target: T1, full-length human LAG-3 on stably transfected CHO-S cells (human, UniProt P18627 23-525); experiment: FACS, CHO-S cells stably transfected with full-length human LAG-3, PE anti-mouse IgG
T1 construct: also called hLAG3
T1 sequence: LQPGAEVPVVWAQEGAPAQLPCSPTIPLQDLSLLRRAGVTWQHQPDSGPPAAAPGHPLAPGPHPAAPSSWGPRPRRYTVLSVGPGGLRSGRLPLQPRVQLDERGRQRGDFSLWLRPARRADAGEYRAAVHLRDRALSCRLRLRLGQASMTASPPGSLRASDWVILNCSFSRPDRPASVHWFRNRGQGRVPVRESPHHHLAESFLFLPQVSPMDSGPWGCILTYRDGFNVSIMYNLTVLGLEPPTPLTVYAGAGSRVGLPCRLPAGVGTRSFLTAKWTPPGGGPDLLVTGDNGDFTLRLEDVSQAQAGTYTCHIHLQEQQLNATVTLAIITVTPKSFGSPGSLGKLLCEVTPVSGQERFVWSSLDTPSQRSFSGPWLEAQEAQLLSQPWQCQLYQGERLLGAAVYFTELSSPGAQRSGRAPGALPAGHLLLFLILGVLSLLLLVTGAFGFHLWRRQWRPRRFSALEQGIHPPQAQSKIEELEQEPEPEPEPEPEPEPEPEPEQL
Description: CHO-S cells stably transfected with full-length human LAG-3 were transferred to a 96-well plate. Around 200,000 cells were incubated with either purified chimeric anti-LAG-3 mAbs (variable regions of mouse mAbs fused to the constant regions of human IgG1 heavy chain and kappa light chain, respectively) or purified mouse anti-LAG-3 mAbs from hybridoma supernatants at various concentrations for 15 minutes at 4° C. Cells were then centrifuged at 1,000 rpm for 5 minutes and washed with FACS buffer (PBS supplemented with 5% BSA) three times. For the cells treated with the chimeric antibodies, the cells were then incubated with PE-conjugated goat anti-human IgG polyclonal antibodies and incubated on ice for another 15 minutes; for the cells treated with mouse mAbs, the cells were incubated with PE-conjugated goat anti-mouse IgG polyclonal antibodies and incubated on ice for another 15 minutes. Cells were then washed with FACS buffer three times and then resuspended in FACS buffer containing 0.1 μg/ml PI (propidium iodide) for live/dead cell gating. Cells were then run through the FACS Caliber instrument and the data were analyzed by the Flowjo software. Results of the FACS binding analysis of the mouse anti-LAG-3 mAbs (B1, B2, B3, B4, B5, B6, B7, B8, B9, B10, B11, B12, and B13) are provided in FIGS. 1A-1B.

[2] = target: T2, B12 (human IgG1 heavy chain and kappa light chain chimeric); experiment: ELISA peptide competition: peptide preincubated with chimeric IgG1 B12, competitor hLAG3-mFc; capture on anti-human IgG, anti-mouse IgG-HRP
T2 construct: Chimeric: mouse VH and VL with human IgG1 heavy chain and kappa light chain constant regions
Description: (§1) FIGS. 5A-5D show the effect of competition peptides on LAG-3 binding to anti-LAG-3 mAbs. […] B5/IgG4 was preincubated with a competition peptide for 30 minutes. Then human LAG-3 extracellular domain (ECD) fused to mouse Fc (hLAG3-mFc) was added (the final peptide concentration was 600-fold that of hLAG3-mFc) and the mixture was incubated for 60 minutes before being added to an ELISA plate coated with anti-human IgG. The incubation was carried out at 4° C. overnight. After washing, the hLAG3-mFc bound to the immobilized B5/IgG4 on the ELISA plate was detected by adding anti-mouse IgG conjugated to horseradish peroxidase (HRP) and incubating for 60 minutes. Then, after washing, the ELISA was developed using One-step Detection Solution and measured as the absorbance at 450 nm.
(§2) Anti-human IgG in carbonate coating buffer was coated on an ELISA plate at 4° C. (50 μL/well at 1 μg/mL) overnight. In each well of a separate plate, a chimeric version of a given anti-LAG-3 mAb (50 μL/well at 1.4 nM) and a competition peptide (50 μL/well at various concentrations as indicated in the figures) were mixed and incubated for 30 minutes at room temperature. Then human LAG-3 extracellular domain (ECD) fused to mouse Fc (hLAG3-mFc) was added to each well (50 μL/well at 2 nM) and the final mixture was incubated at room temperature for 60 minutes before added to the ELISA plate (50 μL/well) for another 60-minute incubation. The final incubation after adding the mixture to the ELISA plate was also performed at 4° C. overnight in some assays. The plate was washed and the binding of hLAG3-mFc to the immobilized anti-LAG-3 mAb was detected by adding anti-mouse IgG conjugated to horseradish peroxidase ([…]) (ThermoFisher Scientific, Cat#: A16084; Waltham, Mass.) and incubating for 60 minutes.

[3] = target: T3, BG29 (human IgG4 heavy chain and kappa light chain chimeric); experiment: ELISA peptide competition: peptide preincubated with chimeric IgG4 BG29, competitor hLAG3-mFc; peptide at 200-fold hLAG3-mFc; capture on anti-human IgG, anti-mouse IgG-HRP
T3 construct: Chimeric: mouse VH and VL with human IgG4 heavy chain and kappa light chain constant regions; also called chimeric BG29
Description: as §1, §2

[4] = target: T4, B5/IgG4; experiment: ELISA peptide competition: peptide preincubated with B5/IgG4, competitor hLAG3-mFc; capture on anti-human IgG, anti-mouse IgG-HRP
T4 construct: Chimeric: mouse VH and VL with human IgG4 heavy chain and kappa light chain constant regions; also called B5 (human IgG4 heavy chain and kappa light chain chimeric)
Description: as §1, §2

[5] = target: T3, BG29 (human IgG4 heavy chain and kappa …); experiment: ELISA peptide competition: peptide preincubated with chimeric IgG4 BG29, competitor hLAG3-mFc; capture on anti-human IgG, anti-mouse IgG-HRP
Description: as §1, §2

[6] = target: T4, B5/IgG4; experiment: ELISA peptide competition: peptide preincubated with B5/IgG4, competitor hLAG3-mFc; peptide at 600-fold hLAG3-mFc; capture on anti-human IgG, anti-mouse IgG-HRP
Description: as §1, §2

[7] = target: T5, human LAG-3(ECD)-mFc (human, UniProt P18627 23-450); experiment: FACS blocking assay: mAb preincubated with LAG-3(ECD)-mFc (1 µg/mL), blocked ligand MHC class II on Daudi cells, PE anti-mouse Fc
T5 construct: also called hLAG3-mFc; human LAG-3 extracellular domain (ECD) fused to mouse Fc; not shown: mouse Fc
T5 sequence: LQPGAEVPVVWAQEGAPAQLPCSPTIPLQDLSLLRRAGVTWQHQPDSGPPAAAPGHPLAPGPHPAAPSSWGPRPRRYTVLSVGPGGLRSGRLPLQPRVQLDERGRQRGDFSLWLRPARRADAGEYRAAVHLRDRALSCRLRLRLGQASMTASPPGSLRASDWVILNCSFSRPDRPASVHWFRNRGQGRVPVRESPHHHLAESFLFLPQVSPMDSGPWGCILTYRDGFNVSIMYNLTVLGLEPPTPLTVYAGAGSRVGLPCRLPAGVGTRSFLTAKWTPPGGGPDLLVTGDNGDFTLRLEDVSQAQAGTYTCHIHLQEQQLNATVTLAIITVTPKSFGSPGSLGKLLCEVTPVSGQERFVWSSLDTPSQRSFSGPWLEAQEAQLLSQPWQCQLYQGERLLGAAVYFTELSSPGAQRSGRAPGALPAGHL
Description: FIGS. 4A-4D show inhibition of human LAG-3 binding to MHC class II molecules by select anti-LAG-3 mAbs. An in vitro binding assay was performed using recombinant LAG-3(ECD)-mFc and Daudi cells which express human MHC class II molecules. […] The binding of LAG-3(ECD)-mFc to Daudi cells in the presence of anti-LAG-3 mAbs or a control mAb was analyzed by FACS.
Human Daudi cells were cultured in RPMI+10% FBS. Human LAG-3(ECD)-mFc protein (human LAG-3 ECD fused to mouse Fc) at 1 μg/ml final concentration was incubated with purified mouse, humanized, or chimeric anti-LAG-3 mAbs at various concentrations for 15 minutes at 4° C. The mixture was then added to 100,000 human Daudi cells in a 96-well round bottom plate, mixed and incubated for 15 minutes on ice. Cells were then centrifuged at 1,000 rpm for 5 minutes and washed with FACS buffer (PBS supplemented with 5% BSA) three times. The cells were then incubated with PE-conjugated goat anti-mouse Fc polyclonal antibodies on ice for 15 minutes, washed with FACS buffer three times and then resuspended in FACS buffer containing 0.1 μg/ml PI (propidine iodine) for live/dead cell gating. Cells were then run through the FACS Caliber instrument and the data were analyzed by the Flowjo software. Results of the inhibition of LAG-3 binding to Daudi cells by chimeric mAbs B1C, B3C, B4C, BSC, B9C, and B11C are shown in FIG. 4B.

[8] = target: T6, human LAG-3(ECD)-huFc (human, UniProt P18627 23-450); experiment: SPR (Biacore): mAb from hybridoma supernatant captured on anti-mouse IgG CM5 chip, human LAG-3(ECD)-huFc 50-400 nM injected
T6 construct: also called Fc-tagged human LAG-3(ECD)-huFc; not shown: human Fc (huFc) at the C-terminus
T6 sequence: T5 sequence
Description: Anti-mouse IgG antibodies were immobilized via amine coupling on CM5 chip surface. Anti-LAG-3 mAbs in hybridoma supernatants were captured on the chip surface and a series of concentrations (50-400 nM) of human LAG-3(ECD)-huFc protein were injected and passed through the captured surface. The on and off rates for antibody-antigen binding were measured, curve fitted and calculated.

B1: BG29 (antibody, V domains shown)
VH: QIQLQQSGPEVVKPGASVRISCKASGYTFSDYHINWVKQKPGQGLEWIGWIYPGRGDPEYNEKFKGKATLTVDRSASTAYMQLSSLTSEDTSVYFCEIYYGNYIDYWGQGTTLTVSS
VL: DIVMTQAAPSVPVTPGESVSISCRSSKSLLHSDGKTYLYWFLQRPGQSPQRLIYYMSNLASGVPDRFSGRGSGTDFTLRISRVEAEDVGVYYCMQSLEYPWTFGGGTKLEIK
notes: Mouse mAb from hybridoma; also called mouse anti-LAG-3 mAb BG29
EC50 (read off the curve) [1]: ~0.2 µg/mL

B2: BG33 (antibody, V domains shown)
VH: B1 VH with R19K, D57N, S77N, T91S, I104L
VL: B1 VL
notes: Mouse mAb from hybridoma; also called mouse anti-LAG-3 mAb BG33
EC50 (read off the curve) [1]: ~0.4 µg/mL

B3: 4-14 (peptide)
peptide: AAAPGHPLAPG
notes: also called peptide 4-14
binding result [2]: no binding (tested: 600-fold hLAG3-mFc) | binding result [3]: binds

B4: 5-14 (peptide)
peptide: AAPGHPLAPG
notes: also called peptide 5-14
binding result [2]: no binding (tested: 600-fold hLAG3-mFc) | binding result [3]: binds

B5: 1-11 (peptide)
peptide: GPPAAAPGHPL
notes: also called peptide 1-11
binding result [4]: no binding (tested: 600-fold hLAG3-mFc)

B6: 1-12 (peptide)
peptide: GPPAAAPGHPLA
notes: also called peptide 1-12
binding result [5]: no binding (tested: 200-fold hLAG3-mFc) | binding result [6]: binds

B7: 6-14 (peptide)
peptide: APGHPLAPG
notes: also called peptide 6-14
binding result [2]: no binding (tested: 600-fold hLAG3-mFc) | binding result [5]: no binding (tested: 200-fold hLAG3-mFc)

B8: 7-14 (peptide)
peptide: PGHPLAPG
notes: also called peptide 7-14
binding result [5]: no binding (tested: 200-fold hLAG3-mFc)

B9: B12 (antibody, V domains shown)
VH: EVKLLESGGSLVQPGGSLKLSCAASGFDFSRYWMSWVRQAPGKGLEWIGEINPDSSTINYTPSLRDEFIISRDNAKNTLFLQMSKVISEDTALYYCARITSGYYFDYWGQGTTLTVSS
VL: DVVMTQTPLSLPVSLGDQASISCRSSQTIVYSNGNTYLYWYLQKPGQSPKLLIYRVSNRFPGVPDRFSGSGSGTDFTLKISGVEAEDMGVYYCFQGTHVPFTFGSGTKLEMK
notes: Mouse mAb from hybridoma; also called mouse anti-LAG-3 mAb B12
binding result [1]: binds | binding result [7]: binds

B10: BG27 (antibody, V domains shown)
VH: QAYLQQSGADLVRPGASVKMSCKASGYTFTSYDMHWVKQTPRQGLEWIGAIYPGNGDASYNQKFKGKATLTVDKASSTAFMQLSSLTSEDSAVYFCARGDYGNYVWFAYWGQGTLVTVSA
VL: DVVMTQTPLSLPVSLGDQASISCRSSQTIVHSNRYTYLEWYLQKPGQSLKLLIYGVSNRFSGVPDRFSGSGSGTDFTLKISRVEAEDMGVYYCFQGTHVPPTFGAGTKLELK
notes: Mouse mAb from hybridoma; also called mouse anti-LAG-3 mAb BG27
EC50 (read off the curve) [1]: ~0.3 µg/mL

B11: 6-13 (peptide)
peptide: APGHPLAP
notes: also called peptide 6-13
binding result [5]: no binding (tested: 200-fold hLAG3-mFc)

B12: B9 (antibody, V domains shown)
VH: EVQLRQSGPVLVKPGASVKMSCKASGYTFTGYYMNWVKQSHGKSLEWLAVINPYNGDTAYNRKFKGRATLTVDKSSSTAYMELNRLTSEDSAVYYCVRDDGYHVRYFDVWGTGTTVTVSS
VL: DIQMTQSPSSLSASLGERVSLTCRASQDISDSLCWLQQKPDGTIKRLIYSTSTLDSGVPKRFSGSRSGSDYSLTISSLESEDFADYYCLQYASSPPTFGGGTKLEIK
notes: Mouse mAb from hybridoma; also called mouse anti-LAG-3 mAb B9
EC50 (read off the curve) [1]: ~0.2 µg/mL | Kd [8]: 1.53 nM
